In patent publication US20060110799A1, “Mitogen-activated protein kinase kinase MEK6 and methods of use thereof” (Signal Pharmaceuticals, Inc., priority 1995, published 2006):
Read-outs that look alike come from different tables or passages of the source.

How the values were obtained:
MEK6 = assay: immune complex kinase assay with GST-p38 substrate, HeLa cells transfected with epitope-tagged MEK6; type: cell-based, human; conditions: for stimulation of MEK6 (summary of Example 4): summary statement for transfected HeLa and COS cells
Experimental: Next, we examined whether MEK6 can activate p38 in vivo. An expression vector encoding epitope-tagged MEK6 (3xHA-MEK6-SRα3) was constructed by replacing serine in position 2 of MEK6 with alanine, adding sequence encoding three copies of a 10 amino acid hemagglutinin (HA) epitope to the N-terminus of MEK6 and ligating the resulting cDNA into SRα3. HeLa cells, cultured in Dulbecco's modified Eagle medium supplemented with 10% fetal calf serum, 500 mg/l L-glutamine, and antibiotics, were transiently transfected with 3xHA-MEK6 using calcium phosphate-mediated DNA precipitation (Graham and van der Eb, Virology 52:456-467 (1973)). Twenty-four hours later cells were stimulated with anisomycin (50 ng/mL) or UV (254 nm; 120 J/m^2) for 0-120 minutes. Cell lysates were prepared by solubilization in lysis buffer as described (Derijard et al., Cell 76:1025-1037 (1994)), and protein concentration of lysates was determined by Bradford assay (Bradford, Ann. Biochem. 72:248-254(1976)).
In an initial experiment we investigated the time course of MEK6 activation by anisomycin and UV treatment of transfected cells. Cell lysates were used in an immune complex kinase assay with GST-p38 substrate, performed as described above except that 30 μg cell lysate was immunoprecipitated for 2 hours with the anti-HA antibody 12CA5 (Boehringer-Mannheim Corp., Indianapolis, Ind.) and then incubated with 1 μg of recombinant substrate. Reactions were separated by SDS-PAGE and quantitated with a phosphorimager and ImageQuant software. The relative level of MEK6 activity in untreated cells was arbitrarily assigned 1.
To investigate the pattern of regulation of MEK6, cells were transiently transfected with 3xHA-MEK6 (as described in Example 3) and treated with various stimulators of the MAPK pathway.
MEKK has been described as a MAPKKK leading to the phosphorylation and activation of JNKK (Lin et al., Science 268:286-290 (1995); Minden et al., Science 266:1719-1722 (1994); Yan et al., Nature 372:798-800 (1994)). In an initial experiment, HeLa (FIG. 7A) or COS (FIG. 7B) cells were transiently transfected with epitope-tagged MEK6 (lanes 1 to 12) or the empty expression vector SRα3 (lanes 13 to 16) and treated for 45 min with IL-1β (10 ng/ml), TNF-α (10 ng/ml), EGF (50 ng/ml), NGF (50 ng/ml), PMA (50 ng/ml), Anisomycin (50 ng/ml), Cycloheximide (CX, 50 ng/ml), Arsenite (200 μM), NaCl (200 μM), UV (254 nm; 120 J/m^2) or cotransfected with 1000 ng CMV5-MEKK as indicated. Cell lysates were used in an immune complex kinase assay with GST-p38 substrate as described in Example 3. MEK6 activity was quantitated with a phosphorimager and ImageQuant software.

MEK6 / p38 / ATF2 = assay: coupled immune complex kinase assay, MEK6 from anisomycin-treated HeLa cells, recombinant p38 and ATF2; type: cell-based, human; conditions: anisomycin 45 minutes, 50 ng/mL, FIG. 6
Experimental: To determine whether the increase in p38 phosphorylation by activated MEK6 augments p38 kinase activity a coupled immune complex kinase assay was performed. Epitope-tagged MEK6 was isolated from anisomycin-treated HeLa cells (45 minutes; 50 ng/mL) and subjected to two subsequent kinase reactions as described above using recombinant p38, ATF2 and GST alone. […] Similar results have been found with MEK6 activated by UV treatment of cells (data not shown). […] This phosphorylation event was slightly augmented by anisomycin in the presence of MEK6 (FIG. 6, compare lanes 3 and 4 with lanes 11 and 12). This protein was not observed in in vitro kinase assays, and therefore is most likely a contamination of the immunoprecipitation.

GST-JNK2 = biological target: T1, GST-JNK2 (Homo sapiens, UniProt P45984); assay: in vitro kinase assay with bacterially expressed MAPK substrate; type: biochemical; conditions: 0.5 μg recombinant kinase, 1 μg substrate, 50 nM [γ-32P]ATP
T1 construct: ligating the respective cDNA fragments encoding amino acid 1 through the stop codon into pGEX-KG; made in house; host or cells: bacteria (pGEX-KG)
Experimental: (§1) A MEK6 kinase assay may be performed substantially as described in Derijard et al., Cell 76:1025-1037 (1994) and Lin et al., Science 268:286-290 (1995), with minor modifications. Briefly, a polypeptide variant of MEK6 may be incubated with p38 and [γ-^32P]ATP in a suitable buffer (such as 20 mM HEPES (pH 7.6), 5 mM MnCl2, 10 mM MgCl2, 1 mM dithiothreitol) for 30 minutes at 30° C. In general, approximately 0.5 μg of the variant and 1 μg recombinant p38, with 50 nM [γ-^32P]ATP, is sufficient. Proteins may then be separated by SDS-PAGE on 10% gels and subjected to autoradiography. Incorporation of [^32P]phosphate into p38 may be quantitated using techniques well known to those of ordinary skill in the art, such as with a phosphorimager. To evaluate the substrate specificity of polypeptide variants, a kinase assay may generally be performed as described above except that other MAPK substrates (i.e., JNK2 and/or ERK) are substituted for the p38.
(§2) cDNAs encoding MEK6 and MKK3 were subcloned into a bacterial GST-fusion protein expression vector. GST-MEK6 was constructed by ligating a 1.3 kb DNA fragment encoding amino acid 1 through the stop codon of MEK6 with a serine to alanine substitution of amino acid 2 into pGEX-KG (Guan and Dixon, Ann. Biochem. 192:262-267 (1991)). Similarly, GST-MKK3, GST-p38 and GST-JNK2 were constructed by ligating the respective cDNA fragments encoding amino acid 1 through the stop codon into pGEX-KG. Human p38 cDNA (Genbank accession number U10871) was cloned by PCR amplification of a Jurkat cDNA library with primers against the 5′ end (5′-[…]-3′) (SEQ ID NO:5) and 3′ end (5′-[…]-3′) (SEQ ID NO:6) of the published human p38 sequence. Each strand of the PCR fragment was sequenced several times with an ABI 373 Automated Sequencer. His-ERK1[K52R] was prepared as described previously (Robbins et al., J. Biol. Chem. 268:5097-5106 (1993)).
(§3) We investigated the substrate specificity of MEK6 in an in vitro kinase assay with bacterially expressed MAPK substrates (GST-JNK2, GST-p38 and His-ERK1[K52R]). The assays were performed as previously described (Derijard et al., Cell 76:1025-1037 (1994); Lin et al., Science 268:286-290 (1995)) with minor modifications. 0.5 μg recombinant kinase and 1 μg recombinant substrate were used, and the concentration of [γ-^32P]ATP was 50 nM. Phosphorylated proteins were separated by SDS-PAGE on 10% gels and then subjected to autoradiography. Incorporation of [^32P]phosphate was quantitated with a phosphorimager and ImageQuant software (Molecular Dynamics, Inc., Sunnyvale, Calif.).

GST-p38 [1] = biological target: T2, GST-p38 (Homo sapiens, UniProt P52564, S2A); assay: as above; type: biochemical; conditions: in vitro kinase assay, compared to MKK3
T2 construct: ligating the respective cDNA fragments encoding amino acid 1 through the stop codon into pGEX-KG; made in house; host or cells: bacteria (pGEX-KG)
T2 sequence (P52564 1-334 S2A): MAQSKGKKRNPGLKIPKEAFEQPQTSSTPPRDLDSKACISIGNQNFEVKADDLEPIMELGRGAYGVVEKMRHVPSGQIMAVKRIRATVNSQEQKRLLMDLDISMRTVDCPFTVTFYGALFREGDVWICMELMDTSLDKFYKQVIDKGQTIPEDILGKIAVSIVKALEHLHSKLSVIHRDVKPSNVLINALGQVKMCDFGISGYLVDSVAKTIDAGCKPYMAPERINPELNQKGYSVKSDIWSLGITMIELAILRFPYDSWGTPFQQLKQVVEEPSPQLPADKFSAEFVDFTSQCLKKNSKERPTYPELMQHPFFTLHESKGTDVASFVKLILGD
Experimental: as §1, §2, §3

GST-p38 [2] = biological target: T3, GST-p38 (Homo sapiens, UniProt Q16539, S2A); assay: as above; type: biochemical; conditions: 0.5 μg recombinant kinase, 1 μg substrate, 50 nM [γ-32P]ATP
T3 construct: ligating the respective cDNA fragments encoding amino acid 1 through the stop codon into pGEX-KG; made in house; host or cells: bacteria (pGEX-KG)
T3 sequence (Q16539 whole entry S2A, the tested form may be a part): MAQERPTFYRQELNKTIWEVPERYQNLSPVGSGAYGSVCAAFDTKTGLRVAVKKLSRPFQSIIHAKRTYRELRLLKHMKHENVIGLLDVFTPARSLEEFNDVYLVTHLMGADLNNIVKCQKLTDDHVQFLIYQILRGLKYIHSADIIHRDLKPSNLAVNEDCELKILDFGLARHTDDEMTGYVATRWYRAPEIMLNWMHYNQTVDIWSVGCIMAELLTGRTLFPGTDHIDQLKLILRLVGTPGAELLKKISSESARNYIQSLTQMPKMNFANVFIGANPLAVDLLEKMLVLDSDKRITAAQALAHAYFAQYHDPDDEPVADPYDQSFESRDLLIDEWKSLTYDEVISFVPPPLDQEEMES
Experimental: as §1, §2, §3

His-ERK1[K52R] = assay: as above; type: biochemical; conditions: 0.5 μg recombinant kinase, 1 μg substrate, 50 nM [γ-32P]ATP
Experimental: as §1, §2, §3

GST-p38 / GST-ATF2 = assay: coupled in vitro kinase assay (p38, GST-ATF2); type: biochemical, human
Experimental: To determine whether p38 phosphorylation results in activation, a coupled in vitro kinase assay may be performed using a substrate for p38, such as ATF2, with or without an epitope tag. ATF2 for use in such an assay may be prepared as described in Gupta et al., Science 257:389-393 (1995). Briefly, following phosphorylation of p38 as described above, isolation of the protein by binding to GSH-sepharose and washing with 20 mM HEPES (pH 7.6), 20 mM MgCl2, the p38 (0.1-10 μg) may be incubated with ATF2 (0.1-10 μg) and [γ-^32P]ATP (10-500 nM) in a buffer containing 20 mM HEPES (pH 7.6), 20 mM MgCl2. It should be noted that alternative buffer may be used and that buffer composition can vary without significant effects on kinase activity. Reactions may be separated by SDS-PAGE, visualized by autoradiography and quantitated using any of a variety of known techniques. Activated p38 will be capable of phosphorylating ATF2 at a level of at least 5% above background using this assay.
To determine whether phosphorylation of p38 is an activating event we analyzed the phosphorylation of recombinant ATF2 (a substrate for p38) in a coupled in vitro kinase assay. […] Reactions were separated by SDS-PAGE and visualized by autoradiography.

[3] = system: GST-JNK2 / GST-cJun(1-79); assay: coupled in vitro kinase assay (JNK2, GST-cJun(1-79)); type: biochemical; conditions: FIG. 3B lanes 1 to 3
[4] = HeLa cells, 45 min, anisomycin 50 ng/ml, NaCl 200 μM, IL-1β 10 ng/ml, EGF 50 ng/ml, NGF 50 ng/ml, CMV5-MEKK 1000 ng cotransfected, FIG. 7A
[5] = HeLa cells, anisomycin 50 ng/mL, FIG. 4

## COc1ccc(C[C@H]2NC[C@H](O)[C@H]2OC(C)=O)cc1 [anisomycin]
MEK6; [4]
  induction of MEK6 kinase activity: strongest inducers
MEK6; [5]
  time at which MEK6 activation was first observed after treatment: 10 min
  time of peak MEK6 activation after treatment: 40 min
MEK6
  stimulation of MEK6 (summary of Example 4): strongly activated
MEK6 / p38 / ATF2
  phosphorylation of ATF2 after anisomycin treatment: increased phosphorylation of ATF2 only when MEK6 and p38 were present

## IL-1β: cytokine stimulator
MEK6; [4]
  induction of MEK6 kinase activity: weak induction

## [Cl-].[Na+] [NaCl]
MEK6
  induction of MEK6 kinase activity: strongest inducers

## NGF: strong inducer of the ERK pathway
MEK6; [4]
  induction of MEK6 kinase activity: did not activate MEK6
MEK6
  stimulation of MEK6 (summary of Example 4): did not stimulate MEK6

## C[C@@H]1C[C@@H]([C@H](O)CC2CC(=O)NC(=O)C2)C(=O)[C@@H](C)C1 [cycloheximide]
MEK6
  stimulation of MEK6 (summary of Example 4): did not significantly activate MEK6

## EGF: strong inducer of the ERK pathway
MEK6; [4]
  induction of MEK6 kinase activity: did not activate MEK6
MEK6
  stimulation of MEK6 (summary of Example 4): did not stimulate MEK6

B1: MEK6: human mitogen-activated protein kinase kinase, SEQ ID NO:2, 334 amino acids; used as GST fusion or HA epitope-tagged (protein)
chain: SQSKGKKRNPGLKIPKEAFEQPQTSSTPPRDLDSKACISIGNQNFEVKADDLEPIMELGRGAYGVVEKMRHVPSGQIMAVKRIRATVNSQEQKRLLMDLDISMRTVDCPFTVTFYGALFREGDVWICMELMDTSLDKFYKQVIDKGQTIPEDILGKIAVSIVKALEHLHSKLSVIHRDVKPSNVLINALGQVKMCDFGISGYLVDSVAKTIDAGCKPYMAPERINPELNQKGYSVKSDIWSLGITMIELAILRFPYDSWGTPFQQLKQVVEEPSPQLPADKFSAEFVDFTSQCLKKNSKERPTYPELMQHPFFTLHESKGTDVASFVKLILGD
modifications: GST fusion or HA tag; homo sapien
GST-JNK2
  phosphorylation of JNK2 by MEK6: none of the other substrates
GST-p38 [1]
  autophosphorylation of MEK6: very low compared to MKK3
GST-p38 [2]
  phosphorylation of p38 by MEK6: efficiently phosphorylated p38
His-ERK1[K52R]
  phosphorylation of ERK1[K52R] by MEK6: none of the other substrates
GST-p38 / GST-ATF2; FIG. 3B lane 5
  phosphorylation of ATF2 by p38 activated by MEK6: strongly phosphorylated
GST-p38 / GST-ATF2; without p38
  direct phosphorylation of ATF2 by MEK6: not directly phosphorylated
[3]
  phosphorylation of Jun, directly or in combination with JNK2: did not cause increased phosphorylation of Jun
